According to article PMC5001721, “Reconstitution of Protein Translation of Mycobacterium Reveals Functional Conservation and Divergence with the Gram-Negative Bacterium Escherichia coli” (PLoS ONE, 2016):

Molecular target: T1, M. tuberculosis elongation factor Ts (EF-Ts) with an N-terminal 6xHis-tag and linker (M. tuberculosis, UniProt P9WNM1 1-271)
T1 sequence: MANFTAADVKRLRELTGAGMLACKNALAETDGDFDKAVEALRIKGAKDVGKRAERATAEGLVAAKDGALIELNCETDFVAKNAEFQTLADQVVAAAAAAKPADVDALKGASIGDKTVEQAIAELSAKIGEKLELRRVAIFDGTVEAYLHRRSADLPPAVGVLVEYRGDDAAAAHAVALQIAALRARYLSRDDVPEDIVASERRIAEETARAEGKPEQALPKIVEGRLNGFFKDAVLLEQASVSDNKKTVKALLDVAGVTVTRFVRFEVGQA
Test: affinity purification with mass spectrometry
Settings: partners not purified

B1: M. tuberculosis elongation factor Tu (EF-Tu) (natural protein)
chain: not shown
Q: For B1, which “stoichiometry N” value is on record?
A: 1
